Experimental data from US20240207464A1 (NIHON MEDI PHYSICS, published 2024).

T1: CD20 (human, UniProt P11836 1-297)
T1 construct: whole, on cells; also called CD20 on Ramos tumor sections (CD20-positive human Burkitt lymphoma-derived cell line)
T1 sequence (looked up): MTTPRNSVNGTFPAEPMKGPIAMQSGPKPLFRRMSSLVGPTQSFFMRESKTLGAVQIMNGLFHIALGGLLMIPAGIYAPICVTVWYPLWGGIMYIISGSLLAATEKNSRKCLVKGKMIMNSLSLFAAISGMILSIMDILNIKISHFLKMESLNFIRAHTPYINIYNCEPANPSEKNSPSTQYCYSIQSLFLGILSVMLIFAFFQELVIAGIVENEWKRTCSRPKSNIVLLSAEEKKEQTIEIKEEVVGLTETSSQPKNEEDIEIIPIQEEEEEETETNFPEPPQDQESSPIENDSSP

B1: radioconjugate (Example 3): conjugate with rituximab by using 89Zr-labeled DOTAGA-DBCO (antibody, human IgG1, kappa)
heavy: not shown
light: QIVLSQSPAILSASPGEKVTMTCRASSSVSYIHWFQQKPGSSPKPWIYATSNLASGVPVRFSGSGSGTSYSLTISRVEAEDAATYYCQQWTSNPPTFGGGTKLEIKRTVAAPSVFIFPPSDEQLKSGTASVVCLLNNFYPREAKVQWKVDNALQSGNSQESVTEQDSKDSTYSLSSTLTLSKADYEKHKVYACEVTHQGLSSPVTKSFNRGEC
peptide: not shown
modifications: lysine side chain modified with R1 (crosslinker, bonded to the antibody Fc); disulfide between the two cysteines; N-terminal ethyl azide via diglycolic acid and eight PEGs, clicked to DBCO of the 89Zr-DOTAGA-DBCO complex; Fc region site-specifically modified by the peptide of SEQ ID NO: 17 through the crosslinker on its lysine; the peptide carries 89Zr-chelated DOTAGA-DBCO through a click reaction
notes: also called 89Zr complex-labeled antibody
B2: radioconjugate (Comparative Example 2): conjugate with rituximab by using 89Zr-labeled DOTA-DBCO (antibody, human IgG1, kappa)
heavy: not shown
light: B1 light
peptide: not shown
modifications: lysine side chain modified with R1 (crosslinker, bonded to the antibody Fc); disulfide between the two cysteines; N-terminal ethyl azide via diglycolic acid and eight PEGs, clicked to DBCO of the 89Zr-DOTA-DBCO complex; Fc region site-specifically modified by the peptide of SEQ ID NO: 17 through the crosslinker on its lysine; the peptide carries 89Zr-chelated DOTA-DBCO through a click reaction

Molecular target: T1, CD20
Test: in vitro autoradiography on frozen Ramos and CCRF-CEM tumor sections
Procedure: Ramos cells of a CD20-positive human Burkitt lymphoma-derived cell line purchased from ATCC (American Type Culture Collection), and CCRF-CEM cells of a CD20-negative human acute lymphoblastic leukemia/T lymphocyte-like cell line were administered subcutaneously to the flanks of female BALB/c nu/nu mice (manufactured by Charles River Laboratories Japan, Inc.) at 5×10⁶ cells to prepare tumor-bearing mice. Thereafter, Ramos tumor and CCRF-CEM tumor were excised and embedded in Tissue-Tek O.C.T. Compound (Sakura Finetek Japan Co., Ltd.) to prepare frozen sections. The radioconjugates obtained in Example 1 and Comparative Example 1 were added to 1% bovine serum albumin-containing PBS each at 1 kBq/mL, and Ramos tumor section and CCRF-CEM tumor section were immersed therein. After contacting the sections with the imaging plate, they were read with a scanner-type image analyzer (Typhoon FLA 7000 manufactured by GE Healthcare Japan) to evaluate the level of radioactivity bound to the sections.

Binder | binding result
B1 | binds
B2 | binds
